Experiment: yeast display, Sf9 membrane polyspecificity reagent, FACS + sequencing; frameworks hold sequencing errors
Method in brief: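 Polyreactivity labels are assigned by the sorting gate from which each nanobody was recovered. The gates were low and high (top ~1%), set on anti-HA fluorescence for expression and streptavidin fluorescence for reagent binding. Before sorting, galactose-induced (36–48 hours) yeast display cells were stained for 1 hour at 4 °C with 10% biotinylated, detergent-solubilized Sf9 membrane reagent.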

Sequence	polyreactivity (PSR sort gate)
QVEHVESGGGLVQAGGSLRLSCAASGITFAAYAMGWYRQARGTERELVAAISTSGDSTYYADSVKGRFTISRDYAKITVYLQMNSLKPADTAVYYCNDRRYGYGVGRGLYIYDYCGQGTQVTVSS	high polyreactivity
QVELVESAGGLVQAGGSLRLICAASGLTFDAYAMGWYRQAPGKERELVAAISSGGNTYYADSVKWRFTISRDNAKNTVYLQMNSLKPEDTAVYYCAATFIQVVVNVQLYDYDYWGQGTQVTVSS	low polyreactivity
QVELVESGGGLVQAGGSLRLSCAASGLTFVSYAMGWYRQAPGKERELVAAISRSGGSTYYADSVKGRFTISLDNAKNTVYLQMNSLKPEDTAVYYCNAYSYVEFWAVYRYDYWGQGTQVTVSS	high polyreactivity
QVHHVESGGGLVQAGGSLRLSCAASGFTFDLYATVLSRQAPRKERELVAAITWRGGSTYYADSVKGRFAISRDNAKNTVYLQMNSLQPEDTAVYYCAADYVIVDDAWLITVEMDSWGQGTQVTVSS	low polyreactivity
QVHHVESGGGLVQAGGSLRLSCADSGSIFTYYAMGWYRQAPGKERDLVAAINSGGRTNYADSVKGRFTISRDNAKNTVYLQMNSLKPVDTAVYYCANYGVLQYGYWGQGTQVTVSS	low polyreactivity
QVHHVESVGGLVQAGGILRLSSAASGRTFDRYAMGWYRQEPGKERELVAAISSGGSTYYADSVKGRFTISRDNAKNTVYLQMNSLKPEDTADYYCNAGKTFDFRDGVGYDHWGQGTQVTVSS	low polyreactivity
QVHIVESGGGLDQAGGSLRLSCAASGSIFYRNAMGWYRQAPGKEREMVAAISSDGSTNYADSVKGRFTISRDNAKNTVYLQMNSLKQEDTAVYFCAAQWTQILDYWGQGTQVNVSS	low polyreactivity
QVHLEESGGGIVQAGGSLRLSCAASGSNFGYNAMGWYRQAPGKEREFVARISSRDDRTSYADSVKGRFTISRDNAKNTVYLQMNSLKPEDTAVYYFAAVRFFLTRAWRPLNYWGQGTIVTVSS	high polyreactivity
QVHLEESGGGLVQAGGSLRLRSAATGRIFKRYAMGWYIQAPGKERDLVAAINWSTGGTYYADSVKGRFTISRDNAKNSVYLHMNSLKPVDTAVYSCAADGDAWFEYLDVEYYYWGQGTQVTVSS	low polyreactivity
QVHLEESGGRLVQAGGSLRLSCSDSGRIIPRNVMGLYRQAPGKERELVAAISSRGTRTYYADSVKGRFTISRDNAKNTVFLQMNSLKPEDTAVYYCAADGPYDGYDFWGQGTQVTVSS	high polyreactivity
QVHLGESGGGLVQAGGSLRLSCAASGSIFGYYAMGWYRQAPGKERELVAAITFRDGSTYYADSVKGRFTISRDNAKNTVYLQMNSLKPEDTAVYYCAARVTYSRGYRGGSRTKYDYWGQGTQVTVSS	low polyreactivity
QVHLLESGGGLDHAGGSLRLSCAASGRIFRYYFMGWYRQAPGKERELVAAISRGGRTYYADSVKGRFTISRDNAKNTVYLQMNSLKPEDTAVYYCDAVITQTDTGYGPSFRVYYWGQGTKVTVSS	high polyreactivity
QVHLQDSGGGLVKAGGSLRMSCAASGYIFGSGSMGWFRQAPGKERELVATINNGSSTYYADSVKGRFTISRDNAKNNVYLQMNSLKAEATAVYYCAVYLYRLTFFYYWGQGNQVTVSS	high polyreactivity
QVHLQESGGGLVQAGGSLRLSCEASGSISRYYDMVWYRQAPGKELEFVAGISGGAITYYADSVKGRFTISRDNAKNTVYLQMNSLKPEDTAVYYCAADTGVYQYHSYWGQGTQVTVSS	low polyreactivity
QVHLVASGGGLVQAGGSLRLSCAASGRSFYEYAMGRYRQEPGKERELVAGITSGGSTNYADSVKGRFTISRDNAKNTVYLQMTSLKPEDTAVYYCADSYWGYEYDYWGQGTQVTVSS	low polyreactivity
QVHLVDSGGGLVQAGASLRLSCSASGSIFYSYAMGWYRPAPGKEWELVAAIRRGGSTNYADSVKGRFTISRDNAKNTVYLQMNSLKPEDTAVYYCAAGRFTYAAQRYEYWGQGTQVTVSS	high polyreactivity
QVHLVDSGGGLVQAGGSLRLSCAASGFTFWRYTMGWYRQAPGKERELVAAISGGTTTYYADSVKGRFTISRDNAKNTVYLQMNSLKPEDTAVYYCAAYSQRARTYDYWGQGTQVTVSS	high polyreactivity
QVHLVDSGGGLVQAGGSLRLSCATSGRIFGAYAMVWYRQAPGKESELVAAITSRGGNTYYADSVKGRFTISRDNAKNTVYLQMNSLKPEDTAVYYCAAGHDKRRQYYVGQSAFDYWGQGTQLTVSS	low polyreactivity
QVHLVDSGGGLVQAGGSLRLSCPASGFIFGLYVMGCYRQSPGKERELVAAITTSVGSTYYADSVKGRFTISRDNAKNTVYLQMNSLKPEDTSVYYCAKTSGTIDYDYWGQGTQVTVSS	low polyreactivity
QVHLVDSGGGLVQAGGSLRLSCPASGLTFPSNSMGCYRQAPGKERELVAAISKRGGRTYYADSVKGRFTISRDNAKNTVYLQMNSLKPEDTAVYYCATLYAYPGTVQYAGYNYWGQGTQVTVSS	high polyreactivity
QVHLVDSGGGLVQAGGSLSLSCAASGIIFLTNAMGWYRQAPGTERELVAAITAIGGSTYYADSVKGSFTISRDTSKYTVYLQMNSLKPEDTAGYYCAADFSYVYYLYDYWGQGTQVTVSS	low polyreactivity
QVHLVDSGGGLVQAGGSLSLSCAPSGTTFHPYAMGCYRHAPGKEREFVATISGSAGSTYYADSVKGRFKISRDNAKNTVYLQMNSLKPEDTAVYYCNADSGWFGYDYWGQGTQVTVSS	low polyreactivity

Sequence	polyreactivity (PSR sort gate)
QVHLVEAGVGLVQAGGSLRVSCAASGFTFCRYAMVWYRQAPGKERELVAAIRYSGSSTYYADSVKGRFTISRDNAKNTVYLQMNSLKPEDTAVYYCAKRYYGNDYWGQGTQVTVSS	high polyreactivity
QVHLVESAGGLVQAGGSLRLSCDASGRTFYPNAMGWYRQKHGQERELVAGIRSSGESTYYEDSVKGRFTISRDNAKTTVYLQMNSLKQEDTAVYYGIRDLTPSYDFWGQGSQVTVSS	low polyreactivity
QVHLVESAGGLVQAGGSLRLTCAASGSTFLFYAMGMYRQAPGKERELVAAISRSGTSTYYADSVKGRFTISRDNAKNTVYLQMNSLKPEDTAVYYCAADDYGGYYYWGQGTQVTVSS	high polyreactivity
QVHLVESGAGLVQAGGSLRISCAASGIIFRLYGLGWYRQAPGKERELVAGINTGGSTSADSVKGRFTISRDNAKNTVYLQMNSLKPEDTAVYYCARDPGYYHPWYRYDYWGQGTQVTVSS	low polyreactivity
QVHLVESGAGLVQAGGSLRLSCAASGGIFWVYAMGWYRQAPGKERELGAAISNSDTSTSYADSVKGRFTISRDNAKNTVYLQMTSLKPEDTAVYYCNADSPSLSGDYWGQGTQVTVSS	low polyreactivity
QVHLVESGGALVQAGGRLRLSCAASGSIFGRNAMGWYRQAPGKERELVAVISKRSGNTYYADSVKGRFTISRDNAKNTVYLQMNSLKPEHTAVYYCNAVDQKLLRYDYWGQGTEVTVSS	high polyreactivity
QVHLVESGGALVQAGGSLRLSCAASGNTFNANAMGWYRQAPGKERELVAVISANGGRTYYADSVKGRFTISRDNAKNTVYLQMNSLIPEDTAVYYCAADSSGEYPGGYWGQGTQVTVSS	low polyreactivity
QVHLVESGGCLVQAGGSLRLSCAASGFTITYNAMGWYRQAPGKEREFVAAITNNGSTYYADSVKGRFTISRDNAMNTVYFQMNSLKPEDTAVYYCAVDPGYYDEYNYWGQGTHVTVSS	low polyreactivity
QVHLVESGGCLVQAGGSLRLSCAASGITFGYYAMGWYRQAPGKERELVAAITTRGGSTSDADSVKGRFTISRDNAKNTVYFQMNSLKPEDNAVYYCAARWRQRKSVRYGQHGYDYWGQGTQVTVSS	high polyreactivity
QVHLVESGGCLVQAGGTLRLSCAASGFTYKWYAMGWYRQAPGKERELVATITIGGRTNYADSVKGRFTISRDNAKNTVYLQMNSLKTEETAVYYCATYFVGLRLSDYDYWGQGTQVTVSS	low polyreactivity
QVHLVESGGGFFQAGGSLRLSCAASVITFPLYAMGWYRPAPGKERELVSAISRNGGRTYYADSVKGRFTISRDNAKNTVYLQMNSLKPEDTAVYYCAKVSRGSVSSPRDDYWGQGTQVNVSS	high polyreactivity
QVHLVESGGGLDQAGGSLRLSCAASGSIFPHNAMVWYIQAPGKERELVASITSRCGITYYADSVKGRFTISRDNAKNTVYLQMNRLKPEDTAVYYCAARNNVEYLTIYKPYSFGSDSWGQGTQVTVSS	low polyreactivity
QVHLVESGGGLDQAGGSLRLSSAASGSIFDKYAMVWYRQAPGKERELVAAITSGGRTYYADSVKGRFTISRDNAKNTVYLQMNSLKPEDTAVYYCAAGARRSYYPSQYYYWGQGTQVTVSS	low polyreactivity
QVHLVESGGGLLQAGGSLRLSCAASGITFSRNVMGWYIQAPGKERELVAAISTSGGSTYYADSVKGRFTISRDNAKNTVYLQMNSLKPEDTAGYYCAKDITVTYPGLDYDYWGQGTQVTVSS	low polyreactivity
QVHLVESGGGLVEAVGSLRLSCAASGRIFARYAMGCYRQAPGKERQLVATITRVGSTNYADSVKRPFTISRDNAKTTVYLQMNSLKPEDTEGFYCNADIRRNGGYAHEYWVQGTQVTVSS	low polyreactivity
QVHLVESGGGLVHAGGSLRLSCAASGSTFYPYAMGWYRQAPGKERELVAAISISGTTYYADSVKGRFTISRDNAKNTVYLQMNCLKPEDTAVYYCAKRAWVRRYPGRVGYNMYYWGQGTQVSVSS	high polyreactivity
QVHLVESGGGLVHAGGSLRLSCAASGSTFYYYAMGWYRQAPGKERELVAAIRLRGGGTYADSVKGRFTISRDNAKNTFYLQMNSLKPEDTAVYYCAARVWYHGTQFGYWGQGTQVTVSS	high polyreactivity
QVHLVESGGGLVQAAGSLRLSCAASGITFAPYAMGWYRQAPGKERELVAGINTGGSTYYADSVKGRFTISRDKEKNTVYLQMNSLKPEDTAFYYCATDSYPADQDIPGCDYWGQGTQVTVSS	low polyreactivity
QVHLVESGGGLVQAAGSLRLSCAASGRIFSYNAMGWYRPAPGKERELVAAISSDGSTYYADSVKGRFTISRDNAKNTVYLQMNSLKPEDTAVYYCAASQVVWFDYTTAQVGSYKVNYWGQGTQVSVSS	low polyreactivity
QVHLVESGGGLVQAGGILRLSCAASGFIFLQYTMGWYRPAPGKERELVAGISWSGDSTYYADSVKGRFTISRDNAKNTVYLQMNSLKPEDTAVYYCNADWRAAGSDFAFGNPQLYDDWGQGSQVTVSS	low polyreactivity
QVHLVESGGGLVQAGGRLRLSCAASGRTFFWYAMGWYRQAPGKEREFVAAITWRTGSTYYADSVKGRFTLSRDNAKNTVYLQMNSLKPEDTAVYYCAGEFPWSFATYYSWGQGTQVTVSS	high polyreactivity
